The values below come from PMC12149299 (2025).

Assay [1] addresses HIV-1 gp120 protein from the YU2.DG strain (HIV-1, UniProt P35961 32-498). As to the kind of experiment: BLI. Background: In BLI a coated tip is dipped into the sample, and binding shifts an interference pattern.
Assay [2] addresses HIV-1 gp120 protein from the JRCSF.JB strain (HIV-1, UniProt P20871 32-503). As to the kind of experiment: BLI.

B1: FD22 (antibody)
chain 1: QVQLSQSGGGAVQPGKSLTLSCRAYGFHLFSYVVVWVRQTPQNGLEWVAGAASGGWPQEFMNSVRGRFSISRDDYTVSLQMNALRVDDSGLYFCAQERGLHRLDGAVKFGRWFRAWGQGSQVVVTS
chain 2: QSALTQPASVSGSPGQSITLSCTGADNSVSWYQVVPGRAPKLLIFEVNVRPSEVSDRFSGSKSGDTASLTISRLQIEDESDYYCVTRRGDVTYLFGSGTRVSVL
modifications: biotin (EZ-Link NHS-LC-Biotin) in the competition ELISA only | biotin (EZ-Link NHS-LC-Biotin) in the competition ELISA only
What is called Kd is the free concentration of one partner at which half of the binding sites on the other are occupied at equilibrium, for simple one-to-one binding. Read a high Kd as a looser complex. As for B1, the values for the dissociation constant (Kd) in assay [1] and in assay [2] were 12.1 nM and 18.1 nM, respectively.
